Laboratory results from PMC9638939.

Tested on: T1, hADAR2-R2D E488Q E488Q (Homo sapiens), P78563-2
T1 sequence: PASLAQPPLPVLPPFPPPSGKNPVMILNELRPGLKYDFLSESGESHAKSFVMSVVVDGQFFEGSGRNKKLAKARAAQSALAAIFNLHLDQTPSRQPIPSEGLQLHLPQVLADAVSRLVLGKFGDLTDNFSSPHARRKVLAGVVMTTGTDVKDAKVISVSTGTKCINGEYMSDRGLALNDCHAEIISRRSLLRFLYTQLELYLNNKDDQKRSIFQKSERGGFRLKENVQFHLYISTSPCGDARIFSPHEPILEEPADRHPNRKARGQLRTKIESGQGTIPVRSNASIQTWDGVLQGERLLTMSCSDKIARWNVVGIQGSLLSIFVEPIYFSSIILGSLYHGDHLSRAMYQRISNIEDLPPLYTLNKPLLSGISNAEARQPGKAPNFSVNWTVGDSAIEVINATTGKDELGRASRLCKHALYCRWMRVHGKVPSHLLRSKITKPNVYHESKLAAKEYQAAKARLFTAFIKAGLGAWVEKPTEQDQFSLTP
Assay: EMSA
Details: N at position 13 of strand 1 = 8-azanebularine; EMSA: labeled strand hybridized to complement 1:3 in 1X TE pH 7.5; protein 0.25-256 nM (GG) or 0-260 nM (UA); binding buffer, salt and temperature not given in …

| Sequence | Kd [nM] |
| --- | --- |
| GCUCGCGAUGCUNGAGGGCUCUGAUAGCUACG / CGUAGCUAUCAGAGCCCCCCAGCAUCGCGAGC [GLI1 (UA) 32mer, azaN] | 0.9 |
| GCUCGCGAUGCGNGAGGGCUCUGAUAGCUACG / CGUAGCUAUCAGAGCCCCCCGGCAUCGCGAGC [GLI1 (GG) 32mer, azaN] | 6 |
